We go through 1 molecule from patent CN109021108A (UNIV NANJING MEDICAL, dated 2018).

The target in assay [1] is T1, GPC3 on A431-GPC3细胞 (A431 cells stably transfected with GPC3 cDNA) (UniProt P51654 25-554).
T1 construct: whole, on cells; also called GPC3阳性细胞; GPC3阳性靶细胞
Nature of the assay: flow cytometry titration on A431-GPC3 cells, 32A9 IgG from 60 μg/ml in 1:2 dilutions, fitted affinity curve. For orientation: A flow cytometer gives signals particle by particle.

The target of another assay is T2, GPC3-his蛋白 (UniProt P51654 25-559).
T2 construct: also called GPC3蛋白; not shown: his tag
T2 sequence (P51654 25-559 limits assumed): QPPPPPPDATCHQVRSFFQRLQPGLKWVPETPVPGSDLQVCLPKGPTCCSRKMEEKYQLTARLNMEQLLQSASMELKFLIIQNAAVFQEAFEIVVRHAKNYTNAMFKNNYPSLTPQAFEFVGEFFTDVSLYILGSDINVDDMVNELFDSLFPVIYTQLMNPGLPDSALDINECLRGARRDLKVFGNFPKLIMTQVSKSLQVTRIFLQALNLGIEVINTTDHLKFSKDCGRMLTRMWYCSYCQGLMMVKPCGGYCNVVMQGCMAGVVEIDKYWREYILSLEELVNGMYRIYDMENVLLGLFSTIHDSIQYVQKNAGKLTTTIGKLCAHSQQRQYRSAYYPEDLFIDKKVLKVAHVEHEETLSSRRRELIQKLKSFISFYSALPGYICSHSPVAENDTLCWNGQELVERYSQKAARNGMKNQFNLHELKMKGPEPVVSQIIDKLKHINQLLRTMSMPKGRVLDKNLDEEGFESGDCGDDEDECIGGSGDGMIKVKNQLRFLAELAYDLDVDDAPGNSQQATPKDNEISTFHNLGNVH
Kind of assay: ELISA titration, GPC3-his coated at 5 μg/ml, 32A9 IgG from 20 μg/ml in 1:2 dilutions, fitted affinity curve. Background: In an ELISA, binding on a coated surface is turned into a signal by an enzyme label.

As a reminder, the Kd is the concentration at which binding is half-saturated. Higher therefore signals weaker binding.

T1 sequence (P51654 25-554 limits assumed, form in doubt): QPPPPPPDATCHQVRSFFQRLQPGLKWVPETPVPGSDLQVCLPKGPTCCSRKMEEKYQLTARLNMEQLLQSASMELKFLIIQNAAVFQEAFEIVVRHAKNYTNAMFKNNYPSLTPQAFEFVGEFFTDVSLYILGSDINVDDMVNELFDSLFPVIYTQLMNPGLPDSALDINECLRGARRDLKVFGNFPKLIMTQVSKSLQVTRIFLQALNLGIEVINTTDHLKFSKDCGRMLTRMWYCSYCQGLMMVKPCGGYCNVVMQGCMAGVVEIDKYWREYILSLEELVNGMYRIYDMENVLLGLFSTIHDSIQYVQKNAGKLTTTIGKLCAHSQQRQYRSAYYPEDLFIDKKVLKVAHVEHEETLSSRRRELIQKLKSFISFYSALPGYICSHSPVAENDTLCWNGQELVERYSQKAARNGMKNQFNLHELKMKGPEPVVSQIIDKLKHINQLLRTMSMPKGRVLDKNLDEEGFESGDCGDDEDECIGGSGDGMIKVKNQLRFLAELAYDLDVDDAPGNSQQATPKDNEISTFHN

B1: 32A9IgG重组蛋白 (抗体32A9, anti-GPC3 fully human antibody, IgG form) (antibody, V domains shown)
VH: EVQLLESGGGLVQPGGSLRLSCAASGFTFSSYAMSWVRQAPGKGLEWVSGIAYNGASTAYADSVKGRFTISRDNSKNTLYLQMNSLRAEDTAVYYCAKSAGSFDYWGQGTLVTVSS
VL: DIQMTQSPSSLSASVGDRVTITCRASQSISSYLNWYQQKPGKAPKLLIYSASSLQSGVPSRFSGSGSGTDFTLTISSLQPEDFATYYCQQDYAYPYTFGQGTKVEIK
notes: also called 32A9IgG蛋白
With B1, the dissociation constant (Kd) in assay [1] came out at 6.25 nM; with GPC3-his蛋白, 1.93 nM.
